The values that follow are results of earlier work, collected in article PMC11741591.

The data set concerns the target reelin receptors (ApoER2/VLDLR) (Homo sapiens) (UniProt Q14114).

pKd: −log10 of the molar value.

reelin, sequence (P78509 26-3460): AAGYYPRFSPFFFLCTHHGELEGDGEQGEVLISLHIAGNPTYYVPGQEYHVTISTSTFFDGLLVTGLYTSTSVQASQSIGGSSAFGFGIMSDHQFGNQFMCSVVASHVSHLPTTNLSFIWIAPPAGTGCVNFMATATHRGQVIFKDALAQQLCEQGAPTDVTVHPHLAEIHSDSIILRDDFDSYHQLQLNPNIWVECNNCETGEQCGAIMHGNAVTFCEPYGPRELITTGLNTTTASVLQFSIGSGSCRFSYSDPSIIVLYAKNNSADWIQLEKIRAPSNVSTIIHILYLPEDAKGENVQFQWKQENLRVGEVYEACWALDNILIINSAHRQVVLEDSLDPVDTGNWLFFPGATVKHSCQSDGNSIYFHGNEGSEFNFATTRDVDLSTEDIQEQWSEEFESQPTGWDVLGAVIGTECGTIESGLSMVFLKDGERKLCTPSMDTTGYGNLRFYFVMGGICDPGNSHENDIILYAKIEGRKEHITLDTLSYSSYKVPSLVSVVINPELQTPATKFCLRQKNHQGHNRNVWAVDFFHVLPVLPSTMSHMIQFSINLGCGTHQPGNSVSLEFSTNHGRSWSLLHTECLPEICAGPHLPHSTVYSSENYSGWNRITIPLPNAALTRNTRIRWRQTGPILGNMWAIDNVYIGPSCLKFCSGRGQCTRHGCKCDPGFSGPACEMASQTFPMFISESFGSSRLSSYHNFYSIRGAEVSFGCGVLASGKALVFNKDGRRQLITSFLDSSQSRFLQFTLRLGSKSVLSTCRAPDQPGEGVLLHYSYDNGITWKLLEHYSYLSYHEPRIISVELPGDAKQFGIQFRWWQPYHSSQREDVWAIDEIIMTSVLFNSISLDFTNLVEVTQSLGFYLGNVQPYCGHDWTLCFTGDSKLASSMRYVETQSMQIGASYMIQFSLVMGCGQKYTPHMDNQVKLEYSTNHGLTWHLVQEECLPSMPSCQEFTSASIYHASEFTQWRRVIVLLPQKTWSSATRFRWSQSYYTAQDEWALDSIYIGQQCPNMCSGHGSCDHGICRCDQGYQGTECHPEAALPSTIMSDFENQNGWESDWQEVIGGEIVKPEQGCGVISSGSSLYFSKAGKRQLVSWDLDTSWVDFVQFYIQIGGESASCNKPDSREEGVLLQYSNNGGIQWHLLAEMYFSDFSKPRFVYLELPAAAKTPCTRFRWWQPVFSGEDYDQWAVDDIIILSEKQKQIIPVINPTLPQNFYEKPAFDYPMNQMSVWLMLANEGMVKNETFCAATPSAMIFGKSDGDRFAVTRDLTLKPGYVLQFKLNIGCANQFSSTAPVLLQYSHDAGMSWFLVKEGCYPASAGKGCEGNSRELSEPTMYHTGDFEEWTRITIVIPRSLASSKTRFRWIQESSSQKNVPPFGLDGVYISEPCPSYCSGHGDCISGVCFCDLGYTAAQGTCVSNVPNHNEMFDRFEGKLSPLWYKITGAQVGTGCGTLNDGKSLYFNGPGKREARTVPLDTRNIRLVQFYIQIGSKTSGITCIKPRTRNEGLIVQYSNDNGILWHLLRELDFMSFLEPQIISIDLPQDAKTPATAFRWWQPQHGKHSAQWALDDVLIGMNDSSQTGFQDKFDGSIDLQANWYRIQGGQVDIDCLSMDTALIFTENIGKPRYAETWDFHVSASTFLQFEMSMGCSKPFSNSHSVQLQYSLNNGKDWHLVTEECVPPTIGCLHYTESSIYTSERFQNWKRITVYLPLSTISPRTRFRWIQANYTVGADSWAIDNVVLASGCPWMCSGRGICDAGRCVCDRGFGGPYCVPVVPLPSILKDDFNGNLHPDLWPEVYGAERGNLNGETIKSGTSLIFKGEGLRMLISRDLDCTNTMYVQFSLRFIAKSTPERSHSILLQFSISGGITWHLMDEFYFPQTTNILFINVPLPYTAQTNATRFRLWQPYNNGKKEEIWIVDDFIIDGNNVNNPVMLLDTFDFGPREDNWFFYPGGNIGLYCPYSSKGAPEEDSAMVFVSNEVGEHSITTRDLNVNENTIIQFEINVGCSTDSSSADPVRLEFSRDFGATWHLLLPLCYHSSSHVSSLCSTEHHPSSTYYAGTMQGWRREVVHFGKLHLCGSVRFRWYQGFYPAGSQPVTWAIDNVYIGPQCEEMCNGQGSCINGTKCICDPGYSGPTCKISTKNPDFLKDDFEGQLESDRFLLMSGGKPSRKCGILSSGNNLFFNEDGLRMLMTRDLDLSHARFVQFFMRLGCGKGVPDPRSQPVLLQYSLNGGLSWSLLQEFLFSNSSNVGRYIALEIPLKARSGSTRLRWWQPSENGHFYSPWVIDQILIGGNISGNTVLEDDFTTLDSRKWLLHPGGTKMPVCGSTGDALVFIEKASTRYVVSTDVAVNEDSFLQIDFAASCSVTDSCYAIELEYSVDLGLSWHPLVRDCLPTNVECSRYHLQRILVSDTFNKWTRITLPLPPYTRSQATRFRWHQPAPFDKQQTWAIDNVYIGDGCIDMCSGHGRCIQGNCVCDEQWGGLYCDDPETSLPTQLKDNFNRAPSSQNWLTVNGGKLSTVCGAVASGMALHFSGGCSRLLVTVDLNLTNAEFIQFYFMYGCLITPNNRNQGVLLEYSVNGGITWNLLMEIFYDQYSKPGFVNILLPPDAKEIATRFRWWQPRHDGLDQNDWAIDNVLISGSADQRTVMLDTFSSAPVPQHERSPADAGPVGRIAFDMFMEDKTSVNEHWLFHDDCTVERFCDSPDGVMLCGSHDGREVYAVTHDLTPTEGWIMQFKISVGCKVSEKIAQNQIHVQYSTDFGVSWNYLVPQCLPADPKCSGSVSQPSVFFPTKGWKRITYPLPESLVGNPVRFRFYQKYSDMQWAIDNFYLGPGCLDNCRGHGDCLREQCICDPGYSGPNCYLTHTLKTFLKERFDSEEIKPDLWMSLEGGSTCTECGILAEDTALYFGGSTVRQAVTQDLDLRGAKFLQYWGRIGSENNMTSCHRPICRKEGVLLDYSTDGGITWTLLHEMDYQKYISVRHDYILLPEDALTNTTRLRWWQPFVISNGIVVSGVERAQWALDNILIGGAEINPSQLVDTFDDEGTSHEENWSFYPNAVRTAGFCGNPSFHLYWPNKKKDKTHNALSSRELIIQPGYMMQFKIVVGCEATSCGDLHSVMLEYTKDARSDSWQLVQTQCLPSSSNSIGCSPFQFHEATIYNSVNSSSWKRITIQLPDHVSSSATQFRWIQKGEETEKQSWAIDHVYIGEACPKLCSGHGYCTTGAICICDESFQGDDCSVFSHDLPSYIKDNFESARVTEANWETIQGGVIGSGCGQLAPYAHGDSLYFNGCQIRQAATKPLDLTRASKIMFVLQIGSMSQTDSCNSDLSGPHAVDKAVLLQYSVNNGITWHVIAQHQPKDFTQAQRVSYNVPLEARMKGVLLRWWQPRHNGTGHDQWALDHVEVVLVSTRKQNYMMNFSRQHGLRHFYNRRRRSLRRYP
UniProt Q14114, sequence (Q14114 33-826): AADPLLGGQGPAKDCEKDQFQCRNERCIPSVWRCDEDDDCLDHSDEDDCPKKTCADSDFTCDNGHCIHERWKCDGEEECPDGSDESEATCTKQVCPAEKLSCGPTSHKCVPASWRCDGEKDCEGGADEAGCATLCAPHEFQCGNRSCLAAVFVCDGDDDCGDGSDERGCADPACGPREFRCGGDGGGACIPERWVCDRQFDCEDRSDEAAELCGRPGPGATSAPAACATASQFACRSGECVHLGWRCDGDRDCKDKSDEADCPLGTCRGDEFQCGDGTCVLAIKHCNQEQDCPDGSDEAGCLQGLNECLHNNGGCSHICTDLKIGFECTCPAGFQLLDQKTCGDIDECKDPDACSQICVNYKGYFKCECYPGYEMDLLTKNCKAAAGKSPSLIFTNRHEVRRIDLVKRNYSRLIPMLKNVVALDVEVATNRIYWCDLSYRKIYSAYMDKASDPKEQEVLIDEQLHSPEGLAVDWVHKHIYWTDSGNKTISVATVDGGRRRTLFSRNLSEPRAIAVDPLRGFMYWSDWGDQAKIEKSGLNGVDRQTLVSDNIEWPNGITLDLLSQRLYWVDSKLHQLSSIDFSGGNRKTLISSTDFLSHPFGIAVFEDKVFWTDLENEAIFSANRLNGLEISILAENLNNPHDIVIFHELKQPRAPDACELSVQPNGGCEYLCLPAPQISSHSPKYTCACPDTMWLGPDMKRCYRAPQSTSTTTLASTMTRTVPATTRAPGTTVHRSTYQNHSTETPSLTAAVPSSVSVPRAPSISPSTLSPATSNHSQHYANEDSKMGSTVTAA

For reelin (from UniProt P78509), the negative-log Kd (pKd) is 9.30.

What is called pKd is the Kd on a negative log10 scale, so that one unit is a factor of ten.
